Measured values published in patent US20240158497A1 (published 2024).

How the values were obtained:
[1] = biological target: T1, human gp130 expressed endogenously on IMR-32/Stat3-luc cells (human, UniProt P40189 23-918); experiment: cell-based or functional assay
T1 sequence: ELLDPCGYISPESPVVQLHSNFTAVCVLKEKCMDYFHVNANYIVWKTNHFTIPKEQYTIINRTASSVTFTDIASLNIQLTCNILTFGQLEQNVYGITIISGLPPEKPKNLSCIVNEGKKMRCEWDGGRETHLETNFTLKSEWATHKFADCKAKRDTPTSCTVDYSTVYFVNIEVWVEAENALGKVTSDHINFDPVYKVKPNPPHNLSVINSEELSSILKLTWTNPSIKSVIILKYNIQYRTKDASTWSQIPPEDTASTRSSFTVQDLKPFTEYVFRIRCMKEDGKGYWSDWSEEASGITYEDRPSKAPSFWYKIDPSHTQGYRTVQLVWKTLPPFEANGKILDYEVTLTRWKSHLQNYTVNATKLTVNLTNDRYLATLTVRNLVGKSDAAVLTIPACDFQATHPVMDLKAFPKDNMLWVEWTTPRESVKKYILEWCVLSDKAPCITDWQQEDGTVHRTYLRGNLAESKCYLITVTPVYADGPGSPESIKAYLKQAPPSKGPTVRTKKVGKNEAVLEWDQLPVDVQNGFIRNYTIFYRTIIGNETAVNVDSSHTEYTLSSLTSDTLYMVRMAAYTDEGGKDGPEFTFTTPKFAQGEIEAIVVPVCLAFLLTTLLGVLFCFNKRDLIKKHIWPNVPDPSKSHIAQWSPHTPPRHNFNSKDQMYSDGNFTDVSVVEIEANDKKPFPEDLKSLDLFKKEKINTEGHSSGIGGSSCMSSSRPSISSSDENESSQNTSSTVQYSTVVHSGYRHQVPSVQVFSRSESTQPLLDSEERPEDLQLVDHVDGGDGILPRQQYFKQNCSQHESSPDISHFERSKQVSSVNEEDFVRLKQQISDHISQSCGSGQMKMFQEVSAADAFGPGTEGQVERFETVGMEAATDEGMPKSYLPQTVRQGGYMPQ

[2] = biological target: T2, human GP130 full length extracellular domain with C-terminal myc-myc-hexahistidine tag (human, UniProt P40189 23-619); experiment: Luminex, antigen captured on anti-myc beads
T2 construct: Monomeric; also called human GP130-MMH; hGP130-mmH

[3] = biological target: T3, human GP130 delta D1 with C-terminal myc-myc hexahistidine tag (human, UniProt P40189 124-619); experiment: Luminex, antigen captured on anti-myc beads
T3 construct: used as CHO supernatant; also called human GP130 delta D1-MMH; GP130 Delta D1 extracellular domain

[4] = biological target: T4, human GP130 delta D1-D3 with C-terminal myc-myc hexahistidine tag (human, UniProt P40189 329-619); experiment: Luminex, antigen captured on anti-myc beads
T4 construct: used as CHO supernatant; also called human GP130 delta D1-D3-MMH; GP130 Delta D1-D3 extracellular domain

[5] = biological target: T5, full length (FL) human gp130 over-expressed on HEK293/Stat3-luc/gp130-2X Sort cells (human, UniProt P40189 23-918); experiment: FACS, 10 nM Ab, HEK293/Stat3-luc/gp130-2X Sort cells
T5 sequence: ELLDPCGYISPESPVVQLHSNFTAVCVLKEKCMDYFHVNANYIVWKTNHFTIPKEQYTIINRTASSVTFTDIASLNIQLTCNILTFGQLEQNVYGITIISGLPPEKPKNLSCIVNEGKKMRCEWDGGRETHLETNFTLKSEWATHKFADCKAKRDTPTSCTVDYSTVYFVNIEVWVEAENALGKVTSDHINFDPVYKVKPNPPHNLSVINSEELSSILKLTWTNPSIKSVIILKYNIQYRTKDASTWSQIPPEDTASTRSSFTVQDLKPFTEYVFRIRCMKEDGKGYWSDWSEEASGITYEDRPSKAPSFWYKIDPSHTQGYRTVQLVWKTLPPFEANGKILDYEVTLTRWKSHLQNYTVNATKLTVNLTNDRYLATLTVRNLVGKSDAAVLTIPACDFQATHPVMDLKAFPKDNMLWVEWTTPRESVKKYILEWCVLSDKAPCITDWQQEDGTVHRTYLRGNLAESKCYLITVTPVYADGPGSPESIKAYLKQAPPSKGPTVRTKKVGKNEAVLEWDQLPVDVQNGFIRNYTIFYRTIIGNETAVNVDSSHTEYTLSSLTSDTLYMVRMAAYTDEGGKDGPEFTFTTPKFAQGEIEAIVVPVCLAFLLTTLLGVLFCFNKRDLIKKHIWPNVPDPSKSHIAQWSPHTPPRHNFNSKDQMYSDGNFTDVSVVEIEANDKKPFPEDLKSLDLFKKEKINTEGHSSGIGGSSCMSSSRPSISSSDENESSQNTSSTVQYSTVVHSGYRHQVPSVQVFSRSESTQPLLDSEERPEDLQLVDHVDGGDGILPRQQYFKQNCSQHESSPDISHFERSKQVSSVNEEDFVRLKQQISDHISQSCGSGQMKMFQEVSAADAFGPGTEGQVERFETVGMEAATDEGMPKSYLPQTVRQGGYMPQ
Description: (§1) In order to assess cell binding by anti-GP130 antibodies of the invention two cell lines were generated. One cell line generated was HEK293 cells stably over-expressing full length (FL) human gp130 (amino acids 1-918 of accession #P40189 with leucine at position 2 changed to valine, a natural variant) along with a luciferase reporter (Stat3-luciferase, Stat3-luc, SA Bioscience, #CLS-6028L). The cells were sorted twice using flow cytometry for high expression of gp130. It is known hereafter as HEK293/Stat3-luc/gp130-2 X Sort. IMR-32 cells (human Neuroblastoma, ATCC), were also evaluated for cell binding as these cells express gp130 endogenously and were used for bioassays. The cells used for binding were generated to stably express a luciferase reporter (Stat3-luciferase, Stat3-luc, SA Bioscience, #CLS-6028L), and are referred to hereafter as IMR-32/STAT3-Luc cells.
(§2) For the FACS analysis, 10 nM of the antibodies were used to stain 0.5×10⁶ cells/well of each cell type at 4° C. in PBS (without calcium and magnesium) containing 2% FBS for 30 minutes. IMR-32/STAT3-luc cells were incubated with 1 mg/mL mouse IgG for 30 minutes at 4° C. to block Fc receptors prior to adding the antibodies. To test whether the anti-gp130 antibody binding is specific for gp130 on the IMR-32 cells, antibodies were added to IMR-32/Stat3-luc cells with or without being pre-bound to 1000 nM of recombinant protein of the ecto-domain of human gp130 fused to myc-myc-his tag (hgp130.mmh) for 30 minutes at 25° C. […] Cells were fixed using BD CytoFix™ (Becton Dickinson, #554655) and analyzed on an IQue® (Intellicyt®) Flow Cytometer. Unstained and secondary antibody alone controls were also tested for all cell lines. The results were analyzed using ForeCyt® (IntelliCyt®) software to determine the geometric means of fluorescence for viable cells.

[6] = biological target: T1, human gp130 expressed endogenously on …; experiment: FACS, 10 nM Ab pre-bound to 1 uM hGP130.mmh, IMR-32/Stat3-luc cells
Description: as §1, §2

T3 sequence (P40189 other isoform, or with tags, fused parts or gaps mutant limits assumed): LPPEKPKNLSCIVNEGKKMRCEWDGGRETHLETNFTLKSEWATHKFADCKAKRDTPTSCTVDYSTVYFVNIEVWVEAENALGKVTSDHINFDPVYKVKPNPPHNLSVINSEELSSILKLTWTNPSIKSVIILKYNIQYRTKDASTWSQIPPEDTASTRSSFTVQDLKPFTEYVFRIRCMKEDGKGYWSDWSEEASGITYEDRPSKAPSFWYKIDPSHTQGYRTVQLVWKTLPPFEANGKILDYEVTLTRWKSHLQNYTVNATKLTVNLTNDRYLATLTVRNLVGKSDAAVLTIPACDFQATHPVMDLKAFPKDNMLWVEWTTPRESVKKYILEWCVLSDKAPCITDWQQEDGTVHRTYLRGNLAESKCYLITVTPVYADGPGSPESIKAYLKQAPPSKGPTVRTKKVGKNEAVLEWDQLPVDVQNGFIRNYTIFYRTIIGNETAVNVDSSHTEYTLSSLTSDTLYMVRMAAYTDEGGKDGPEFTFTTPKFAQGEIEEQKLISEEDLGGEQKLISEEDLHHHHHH
T4 sequence (P40189 other isoform, or with tags, fused parts or gaps mutant limits assumed): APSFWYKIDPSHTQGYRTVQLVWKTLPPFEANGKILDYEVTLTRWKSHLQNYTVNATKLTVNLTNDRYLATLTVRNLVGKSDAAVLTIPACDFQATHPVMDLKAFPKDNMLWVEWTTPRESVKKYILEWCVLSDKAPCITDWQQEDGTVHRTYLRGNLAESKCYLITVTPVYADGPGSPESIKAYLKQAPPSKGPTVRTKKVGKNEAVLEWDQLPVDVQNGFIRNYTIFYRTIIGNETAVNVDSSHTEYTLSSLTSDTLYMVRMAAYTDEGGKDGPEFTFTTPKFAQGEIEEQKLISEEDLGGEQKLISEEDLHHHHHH

B1: MAb16673 (antibody, V domains shown)
VH: EVQLVQSGAEVKKPGESLKISCKGSGYSFTSYWIDWVRQMPGKGLEWMGIIYPDDSDTRYSPSFQGQVTMSVDKSISTAYLQWSSLKASDTAIYYCARHERGIVEAGTDYYYYYGMDVWGQGTTVTVSS
VL: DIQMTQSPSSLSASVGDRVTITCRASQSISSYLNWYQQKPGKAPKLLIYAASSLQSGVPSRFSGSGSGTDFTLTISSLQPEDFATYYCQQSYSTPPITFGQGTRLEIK
notes: hIgG4 isotype control used
- % inhibition; CNTF (20 pM) [1]: 46%
- % inhibition; LIF (20 pM) [1]: 52%
- % inhibition; OSM (100 pM) [1]: 62%
- IC50 [M]; CNTF (20 pM) [1]: > 1e-07 M
- IC50 [M]; LIF (20 pM) [1]: 9e-09 M
- IC50 [M]; OSM (100 pM) [1]: > 5e-08 M
- Luminex MFI signal [2]: 15100 MFI
- Luminex MFI signal [3]: 2340 MFI
- Luminex MFI signal [4]: 33 MFI
- MFI - Normalized to Unstained Control [5]: 107 ratio
- MFI - Normalized to Unstained Control [6]: 7 ratio
